Results on 2 molecules are retold here after patent US20090170766A1, “Chimeric Kunitz Domains and their Use” (BAYER HEALTHCARE AG, priority 2006, published 2009).

Where only a bound is given, the exact number is not on record here.

Test [1] relates to human trypsin. Nature of the test: Inhibition of trypsin, fluorogenic substrate assay. The test is classed as biochemical. The protocol: (§1) The inhibitory potency of TFPI mut3 on the enzymatic activities of trypsin, plasmin and plasma kallikrein were determined with the aid of fluorogenic substrates in biochemical assays in white 384-well microtitre plates. The assay buffer was composed of 50 mM Tris/Cl, pH 7.4, 100 mM NaCl, 5 mM CaCl2, 0.08% (w/v) BSA. The assay conditions were specifically as follows:
(§2) 10 μl of a serial dilution of TFPI mut3EA were introduced into each well and preincubated with 20 μl of enzyme at RT for 5 min. The reaction was then started by adding 20 μl of substrate to each. The measurement took place after 60-90 min in a Tecan reader with an excitation wavelength of 360 nm and an emission wavelength of 465 nm. Dose-activity plots and half-maximum inhibitory constants (IC50 values) were determined using GraphPad Prism software (version 4.02).

In test [2] the target is T1, human plasma kallikrein (Homo sapiens, UniProt P03952).
T1 construct: purchased Calbiochem 420307
T1 sequence (P03952 391-638 limits assumed): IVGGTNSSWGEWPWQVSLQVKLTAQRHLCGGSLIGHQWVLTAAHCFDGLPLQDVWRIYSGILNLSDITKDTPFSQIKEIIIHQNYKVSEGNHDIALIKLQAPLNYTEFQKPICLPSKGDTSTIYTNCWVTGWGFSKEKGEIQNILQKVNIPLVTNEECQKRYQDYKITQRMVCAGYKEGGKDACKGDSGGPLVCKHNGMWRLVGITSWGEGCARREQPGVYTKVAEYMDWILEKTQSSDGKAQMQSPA
T1 sequence (P03952 20-390 partner limits assumed): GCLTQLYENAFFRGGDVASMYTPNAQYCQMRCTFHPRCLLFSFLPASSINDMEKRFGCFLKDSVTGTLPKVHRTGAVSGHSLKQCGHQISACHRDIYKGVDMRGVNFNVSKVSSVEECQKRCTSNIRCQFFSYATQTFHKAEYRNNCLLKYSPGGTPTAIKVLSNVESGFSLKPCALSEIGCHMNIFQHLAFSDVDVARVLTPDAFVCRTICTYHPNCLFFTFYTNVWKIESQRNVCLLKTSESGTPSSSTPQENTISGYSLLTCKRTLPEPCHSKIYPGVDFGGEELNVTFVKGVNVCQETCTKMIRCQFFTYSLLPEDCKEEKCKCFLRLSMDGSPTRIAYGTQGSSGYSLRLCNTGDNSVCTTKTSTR
Nature of the test: Inhibition of plasma kallikrein, fluorogenic substrate assay. The test is classed as biochemical. As to conditions: human plasma kallikrein; read-out: Plasma kallikrein IC50. The protocol: as §1, §2

Test [3] deals with T2, human plasmin (Homo sapiens, UniProt P00747).
T2 construct: enzymatic activities of trypsin, plasmin and plasma kallikrein; purchased Enzyme Research Hplas
T2 sequence (P00747 581-810 limits assumed): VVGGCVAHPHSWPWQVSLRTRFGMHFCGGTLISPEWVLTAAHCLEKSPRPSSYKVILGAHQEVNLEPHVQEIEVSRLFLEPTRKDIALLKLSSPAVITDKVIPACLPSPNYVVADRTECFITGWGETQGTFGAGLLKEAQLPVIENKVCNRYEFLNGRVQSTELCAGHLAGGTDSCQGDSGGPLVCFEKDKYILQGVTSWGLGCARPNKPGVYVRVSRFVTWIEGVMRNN
T2 sequence (P00747 97-580 partner limits assumed): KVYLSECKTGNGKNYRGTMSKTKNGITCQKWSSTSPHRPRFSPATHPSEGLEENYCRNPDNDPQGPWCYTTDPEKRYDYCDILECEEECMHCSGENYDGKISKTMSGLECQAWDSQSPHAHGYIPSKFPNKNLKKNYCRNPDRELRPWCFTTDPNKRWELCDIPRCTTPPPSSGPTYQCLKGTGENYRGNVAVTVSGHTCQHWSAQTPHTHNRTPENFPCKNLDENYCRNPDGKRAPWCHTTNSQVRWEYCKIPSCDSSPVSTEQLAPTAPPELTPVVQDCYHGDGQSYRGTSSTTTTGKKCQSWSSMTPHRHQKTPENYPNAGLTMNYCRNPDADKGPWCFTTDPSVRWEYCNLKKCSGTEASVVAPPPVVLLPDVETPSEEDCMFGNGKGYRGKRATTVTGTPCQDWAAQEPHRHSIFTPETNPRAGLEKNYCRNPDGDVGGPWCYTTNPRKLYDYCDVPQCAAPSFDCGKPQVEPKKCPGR
Nature of the test: Inhibition of plasmin, fluorogenic substrate assay. It counts as biochemical. As to conditions: human plasmin; read-out: Plasmin IC50. The protocol:
as §1, §2

Test [4] concerns the target human plasma kallikrein (human, UniProt P03952). Nature of the test: cell-based or functional assay.
For test [5], the target named is human plasmin (human, UniProt P00747). Nature of the test: cell-based or functional assay.
Test [6] has as its target human trypsin (human, UniProt P07477). The test is described as follows: cell-based or functional assay.

As to “SEQ ID NO: 5: hTFPI D1 variant: MSSFCAFKAETGPCRAAHPRWWFNIFTRQCEEFIYGGCEGNQNRFESLEECKKMCTRD”, the values for the IC50 in test [1], in test [2] and in test [3] were 8 nM, 3 nM and 24 nM, respectively.

B1: human tissue factor pathway inhibitor 1 Kunitz domain 1 (hTFPI D1) (other)
chain: MHSFCAFKADDGPCKAIMKRFFFNIFTRQCEEFIYGGCEGNQNRFESLEECKKMCTRD
With B1, the “Plasma kallikrein IC50 [nM], inhibition of enzymatic activity, fluorogenic substrate” value in test [4] was > 10000 nM. Besides, the “Plasmin IC50 [nM], inhibition of enzymatic activity, fluorogenic substrate” value in test [5] came out at 559 nM. For the same molecule, the “Trypsin IC50 [nM], inhibition of enzymatic activity, fluorogenic substrate” value in test [6] came to 44 nM.
